Reference: article PMC4660060, “The molecular architecture of the Dam1 kinetochore complex is defined by cross-linking based structural modelling” (Nature Communications, 2015)

Target: the molecule itself
Experiment: TIRF microscopy, tracer residence time; GFP-tagged and unlabelled versions of the same mutant Dam1 complex mixed 1:100 to 2 nM in all (20 pM tracer), on immobilised MTs; BRB80, 0.8 mg/ml kappa-casein, 50 mM KCl, oxygen scavengers; concentrations that support oligomeric rings

Protein | fold increase of the average residence time on MTs against single molecules [fold] | binding result
Dam1-GFP NP complex, mock-treated (Dam1p S257A, S265A, S292A, Ask1p S200A, Spc34p T199A) (complex, yeast, GFP-tagged complex, detected by its GFP; In the tracer assay 20 pM of this complex met 2 nM of the same mutant complex without GFP; also called Dam1 NP mock; Dam1 NP; source: recombinant Dam1 complex (E. coli BL21 Rosetta, purified); mock-treated with GST-Ipl1 and GST-Sli15 (554-698), distilled water in place of ATP; copies: + + + + + + + + +) chain 1: MDSASKEETLEKLDQEITVNLQKIDSNLSFCFHKITQDIIPHVATYSEICERIMDSTEWLGTMFQETGLVNLQANAAAPVGNAPVKSLVSNNVGIFPTSAEEASRQSQTDNGPNEADSAVHVNRDVHSMFNNDSIDDFHTANITSTGQILKLPDSSDEDTGSEAVPSREQTDLTGEGHGGADDEQDESTIQRQSRKRKIALLLQQQYGSSSSMVPSPIVPNKMRKQLAHEEHINNDGDNDDENSNNIESSPLKQGHHHPKGQADDNNEGPDEEESTKEVPKPGTIIHFSTNR chain 2: MMASTSNDEEKLISTTDKYFIEQRNIVLQEINETMNSILNGLNGLNISLESSIAVGREFQSVSDLWKTLYDGLESLSDEAPIDEQPTLSQSKTK chain 3: MDSIDEQIAIKRKELQSLQKITSLTDGLKIQLTELNEQIKEMGMNADSVAQLMNNWDSIINNISQASLGLLQYAEGDYEIGPWKDSKKKESEQSNETGLEAQENDKNDEDNDEDEDLVPLPETMVRIRVDGNE chain 4: MEHNLSPLQQEVLDKYKQLSLDLKALDETIKELNYSQHRQQHSQQETVSPDEILQEMRDIEVKIGLVGTLLKGSVYSLILQRKQEQESLGSNSK chain 5: MENPHEQVQANILSRIIGNVKRLNESVAILNQELVTINNRNKNLEIMGAICDNYHSSVQFNLEATNNKKPPL chain 6: MSEDKAKLGTTRSATEYRLSIGSAPTSRRSSMGESSSLMKFADQEGLTSSVGEYNENTIQQLLLPKIRELSDSIITLDSNFTRLNFIHESLADLNESLGSLLYGIMSNSWCVEFSQAPHDIQDDLIAIKQLKSLEDEKNNLVMELSNMERGIKRKKDEQGENDLAKASQNKQFNQPLFPSSQVRKYRSYDNRDKRKPSKIGNNLQVENEEDYEDDTSSEASFVLNPTNIGMSKSSQGHVTKTTRLNNNTNSKLRRKAILHTIRNAIASGADLPIENDNVVNLGDLHPNNRIALGSGAARVVNGPVTKNRNSMFSGRAERKPTESRHSVAKKTEKKINTRPPFR chain 7: MSEQSQLDDSTIDKLIPQIFNEMRSNLNNTTNKFPKSTGGGASDNISANSNSIRSFNSITTQSLLKESESLDKITAMIKNVTAALKNNLPVYVNQVHEVCKSTNSILDSWINIHSQAGYIHKLMSDQTYLKLINDRLHNENVNTNDEDGSTLHNVIALKKKEILDLRQKLENRKGEKDAAPAKPPNQGLNPRYGVQSGRRPVPSAGISNNGRVRKTHVPASKRPSGIPRVTNRWTKPTASSSRKMFR chain 8: MNANKQRQYNQLAHELRELQTNLQETTKQLDIMSKQCNENLVGQLGKVHGSWLIGSYIYYMEQMLGKTQ chain 9: MTDALEQSVLALEGTVSVLKDSVESLKCANEPSTNLASTMLQTKRVFRLVPEYDVERSKLDLIEEVEPLVRTLGDKLRKSMGRMQRELDTLQQTYELNDLRLKKNISMDDDDALNSPDMGQEYEGRDADDVVMMASSTNEELEELKKLKEKKKQLENKLEILKQK chain 10: MGESLDRCIDDINRAVDSMSTLYFKPPGIFHNAILQGASNKASIRKDITRLIKDCNHDEAYLLFKVNPEKQSVSRRDGKEGVFDYVIKRDTDMKRNRRLGRPGEKPIIHVPKEVYLNKDRLDLNNKRRRTATTSGGGLNGFIFDTDLIGSSVISNSSSGTFKALSAVFKDDPQIQRLLYALENGSVLMEEESNNQRRKAIFVEDFPTDLILKVMAEVTDLWPLTEFKQDYDQLYHNYEQLSSKLRFIKKEVLLQDDRLKTMSQYHPSSSHDVAKIIRKEKDEIRRLEMEIANLQE | > 5 | 
Dam1-GFP CP complex, mock-treated (Dam1p S20A, Ask1p S200A, Spc34p T199A) (complex, yeast, GFP-tagged complex, detected by its GFP; In the tracer assay 20 pM of this complex met 2 nM of the same mutant complex without GFP; also called Dam1 CP mock; Dam1 CP; source: recombinant Dam1 complex (E. coli BL21 Rosetta, purified); mock-treated with GST-Ipl1 and GST-Sli15 (554-698), distilled water in place of ATP; copies: + + + + + + + + +) chain 1: MDSASKEETLEKLDQEITVNLQKIDSNLSFCFHKITQDIIPHVATYSEICERIMDSTEWLGTMFQETGLVNLQANAAAPVGNAPVKSLVSNNVGIFPTSAEEASRQSQTDNGPNEADSAVHVNRDVHSMFNNDSIDDFHTANITSTGQILKLPDSSDEDTGSEAVPSREQTDLTGEGHGGADDEQDESTIQRQSRKRKIALLLQQQYGSSSSMVPSPIVPNKMRKQLAHEEHINNDGDNDDENSNNIESSPLKQGHHHPKGQADDNNEGPDEEESTKEVPKPGTIIHFSTNR chain 2: MMASTSNDEEKLISTTDKYFIEQRNIVLQEINETMNSILNGLNGLNISLESSIAVGREFQSVSDLWKTLYDGLESLSDEAPIDEQPTLSQSKTK chain 3: MDSIDEQIAIKRKELQSLQKITSLTDGLKIQLTELNEQIKEMGMNADSVAQLMNNWDSIINNISQASLGLLQYAEGDYEIGPWKDSKKKESEQSNETGLEAQENDKNDEDNDEDEDLVPLPETMVRIRVDGNE chain 4: MEHNLSPLQQEVLDKYKQLSLDLKALDETIKELNYSQHRQQHSQQETVSPDEILQEMRDIEVKIGLVGTLLKGSVYSLILQRKQEQESLGSNSK chain 5: MENPHEQVQANILSRIIGNVKRLNESVAILNQELVTINNRNKNLEIMGAICDNYHSSVQFNLEATNNKKPPL chain 6: MSEDKAKLGTTRSATEYRLAIGSAPTSRRSSMGESSSLMKFADQEGLTSSVGEYNENTIQQLLLPKIRELSDSIITLDSNFTRLNFIHESLADLNESLGSLLYGIMSNSWCVEFSQAPHDIQDDLIAIKQLKSLEDEKNNLVMELSNMERGIKRKKDEQGENDLAKASQNKQFNQPLFPSSQVRKYRSYDNRDKRKPSKIGNNLQVENEEDYEDDTSSEASFVLNPTNIGMSKSSQGHVTKTTRLNNNTNSKLRRKSILHTIRNSIASGADLPIENDNVVNLGDLHPNNRISLGSGAARVVNGPVTKNRNSMFSGRAERKPTESRHSVAKKTEKKINTRPPFR chain 7: MSEQSQLDDSTIDKLIPQIFNEMRSNLNNTTNKFPKSTGGGASDNISANSNSIRSFNSITTQSLLKESESLDKITAMIKNVTAALKNNLPVYVNQVHEVCKSTNSILDSWINIHSQAGYIHKLMSDQTYLKLINDRLHNENVNTNDEDGSTLHNVIALKKKEILDLRQKLENRKGEKDAAPAKPPNQGLNPRYGVQSGRRPVPSAGISNNGRVRKTHVPASKRPSGIPRVTNRWTKPTASSSRKMFR chain 8: MNANKQRQYNQLAHELRELQTNLQETTKQLDIMSKQCNENLVGQLGKVHGSWLIGSYIYYMEQMLGKTQ chain 9: MTDALEQSVLALEGTVSVLKDSVESLKCANEPSTNLASTMLQTKRVFRLVPEYDVERSKLDLIEEVEPLVRTLGDKLRKSMGRMQRELDTLQQTYELNDLRLKKNISMDDDDALNSPDMGQEYEGRDADDVVMMASSTNEELEELKKLKEKKKQLENKLEILKQK chain 10: MGESLDRCIDDINRAVDSMSTLYFKPPGIFHNAILQGASNKASIRKDITRLIKDCNHDEAYLLFKVNPEKQSVSRRDGKEGVFDYVIKRDTDMKRNRRLGRPGEKPIIHVPKEVYLNKDRLDLNNKRRRTATTSGGGLNGFIFDTDLIGSSVISNSSSGTFKALSAVFKDDPQIQRLLYALENGSVLMEEESNNQRRKAIFVEDFPTDLILKVMAEVTDLWPLTEFKQDYDQLYHNYEQLSSKLRFIKKEVLLQDDRLKTMSQYHPSSSHDVAKIIRKEKDEIRRLEMEIANLQE | > 5 | 
Dam1-GFP CP complex, phosphorylated by Ipl1 (Dam1p S20A, Ask1p S200A, Spc34p T199A; Dam1p C-terminal sites phosphorylated) (complex, yeast, phosphoserine at S257, S265 and S292 (by Ipl1 kinase, nearly stoichiometric), GFP-tagged complex, detected by its GFP; In the tracer assay 20 pM of this complex met 2 nM of the same phosphorylated mutant complex without GFP; also called Dam1 CP phos; Dam1 CP; source: recombinant Dam1 complex (E. coli BL21 Rosetta, purified); phosphorylated with GST-Ipl1, GST-Sli15 (554-698) and 10 mM ATP, 90 min, 30 °C; copies: + + + + + + + + +) chain 1: MDSASKEETLEKLDQEITVNLQKIDSNLSFCFHKITQDIIPHVATYSEICERIMDSTEWLGTMFQETGLVNLQANAAAPVGNAPVKSLVSNNVGIFPTSAEEASRQSQTDNGPNEADSAVHVNRDVHSMFNNDSIDDFHTANITSTGQILKLPDSSDEDTGSEAVPSREQTDLTGEGHGGADDEQDESTIQRQSRKRKIALLLQQQYGSSSSMVPSPIVPNKMRKQLAHEEHINNDGDNDDENSNNIESSPLKQGHHHPKGQADDNNEGPDEEESTKEVPKPGTIIHFSTNR chain 2: MMASTSNDEEKLISTTDKYFIEQRNIVLQEINETMNSILNGLNGLNISLESSIAVGREFQSVSDLWKTLYDGLESLSDEAPIDEQPTLSQSKTK chain 3: MDSIDEQIAIKRKELQSLQKITSLTDGLKIQLTELNEQIKEMGMNADSVAQLMNNWDSIINNISQASLGLLQYAEGDYEIGPWKDSKKKESEQSNETGLEAQENDKNDEDNDEDEDLVPLPETMVRIRVDGNE chain 4: MEHNLSPLQQEVLDKYKQLSLDLKALDETIKELNYSQHRQQHSQQETVSPDEILQEMRDIEVKIGLVGTLLKGSVYSLILQRKQEQESLGSNSK chain 5: MENPHEQVQANILSRIIGNVKRLNESVAILNQELVTINNRNKNLEIMGAICDNYHSSVQFNLEATNNKKPPL chain 6: MSEDKAKLGTTRSATEYRLAIGSAPTSRRSSMGESSSLMKFADQEGLTSSVGEYNENTIQQLLLPKIRELSDSIITLDSNFTRLNFIHESLADLNESLGSLLYGIMSNSWCVEFSQAPHDIQDDLIAIKQLKSLEDEKNNLVMELSNMERGIKRKKDEQGENDLAKASQNKQFNQPLFPSSQVRKYRSYDNRDKRKPSKIGNNLQVENEEDYEDDTSSEASFVLNPTNIGMSKSSQGHVTKTTRLNNNTNSKLRRKSILHTIRNSIASGADLPIENDNVVNLGDLHPNNRISLGSGAARVVNGPVTKNRNSMFSGRAERKPTESRHSVAKKTEKKINTRPPFR chain 7: MSEQSQLDDSTIDKLIPQIFNEMRSNLNNTTNKFPKSTGGGASDNISANSNSIRSFNSITTQSLLKESESLDKITAMIKNVTAALKNNLPVYVNQVHEVCKSTNSILDSWINIHSQAGYIHKLMSDQTYLKLINDRLHNENVNTNDEDGSTLHNVIALKKKEILDLRQKLENRKGEKDAAPAKPPNQGLNPRYGVQSGRRPVPSAGISNNGRVRKTHVPASKRPSGIPRVTNRWTKPTASSSRKMFR chain 8: MNANKQRQYNQLAHELRELQTNLQETTKQLDIMSKQCNENLVGQLGKVHGSWLIGSYIYYMEQMLGKTQ chain 9: MTDALEQSVLALEGTVSVLKDSVESLKCANEPSTNLASTMLQTKRVFRLVPEYDVERSKLDLIEEVEPLVRTLGDKLRKSMGRMQRELDTLQQTYELNDLRLKKNISMDDDDALNSPDMGQEYEGRDADDVVMMASSTNEELEELKKLKEKKKQLENKLEILKQK chain 10: MGESLDRCIDDINRAVDSMSTLYFKPPGIFHNAILQGASNKASIRKDITRLIKDCNHDEAYLLFKVNPEKQSVSRRDGKEGVFDYVIKRDTDMKRNRRLGRPGEKPIIHVPKEVYLNKDRLDLNNKRRRTATTSGGGLNGFIFDTDLIGSSVISNSSSGTFKALSAVFKDDPQIQRLLYALENGSVLMEEESNNQRRKAIFVEDFPTDLILKVMAEVTDLWPLTEFKQDYDQLYHNYEQLSSKLRFIKKEVLLQDDRLKTMSQYHPSSSHDVAKIIRKEKDEIRRLEMEIANLQE |  | binds
